{
  "source": "paper PMC13681993",
  "about": "(2026)",
  "key": {"[1]": {"target": "T1, EGFR C-tail Y1016/Y1092 980-1210 (Homo sapiens, UniProt P00533)", "T1 chain": "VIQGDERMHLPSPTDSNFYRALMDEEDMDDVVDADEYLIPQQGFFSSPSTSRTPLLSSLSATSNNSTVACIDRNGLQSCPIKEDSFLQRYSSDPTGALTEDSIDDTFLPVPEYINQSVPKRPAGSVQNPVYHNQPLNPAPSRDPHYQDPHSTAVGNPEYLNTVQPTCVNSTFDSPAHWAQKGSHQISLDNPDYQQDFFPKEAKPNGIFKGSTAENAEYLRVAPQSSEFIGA", "experiment": "BLI"}, "[2]": {"target": "T2, EGFR C-tail Y1016/Y1138 980-1210 (Homo sapiens, UniProt P00533)", "T2 chain": "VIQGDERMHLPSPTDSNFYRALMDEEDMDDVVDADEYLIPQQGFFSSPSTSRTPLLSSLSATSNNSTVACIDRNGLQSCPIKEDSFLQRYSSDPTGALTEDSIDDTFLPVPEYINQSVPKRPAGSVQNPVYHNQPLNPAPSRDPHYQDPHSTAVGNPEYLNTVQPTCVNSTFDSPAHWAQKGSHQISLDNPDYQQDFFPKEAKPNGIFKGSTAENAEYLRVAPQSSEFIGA", "experiment": "BLI"}},
  "data": [
    {"binder": "PLCγ1 tandem SH2 N-SH2-C-SH2 (protein) WFHGKLGAGRDGRHIAERLLTEYCIETGAPDGSFLVRESETFVGDYTLSFWRNGKVQHCRIHSRQDAGTPKFFLTDNLVFDSLYDLITHYQQVPLRCNEFEMRLSEPVPQTNAHESKEWYHASLTRAQAEHMLMRVPRDGAFLVRKRNEPNSYAISFRAEGKIKHCRVQQEGQTVMLGNSEFDSLVDLISYYEKHPLYRKMKLRYPI", "values": [
      {"measurement": "Kd", "setting": "[1]", "result": 429, "unit": "nM"},
      {"measurement": "Kd", "setting": "[2]", "result": 63.4, "unit": "nM"}
    ]}
  ]
}
